Results taken from the Human Domainome abundance scans (Beltran et al. 2025).
± gives the uncertainty stated by the source.

B1: Tudor domain-containing protein 3, residues 554 to 611; numbered along this chain, Q9H7E2 (parent)
chain: KMWKPGDECFALYWEDNKFYRAEVEALHSSGMTAVVKFIDYGNYEEVLLSNIKPIQTE

Variants of: B1
Experiment: abundance fitness (aPCA) (normalised: wild type 0, dead -1); higher = more abundant; growth selection in yeast, the domain comes from the species named
Details: Homo sapiens

Row | Variant | abundance fitness
1 | N17F | -0.65 ± 0.23
2 | N17G | -0.105 ± 0.059
3 | N17S | -0.117 ± 0.072
4 | N17Y | -0.604 ± 0.2
5 | N17W | -0.716 ± 0.13
6 | R21G | -0.978 ± 0.098
7 | R21Y | -0.662 ± 0.11
8 | R21Q | -0.13 ± 0.1
9 | R21D | -0.582 ± 0.14
10 | R21V | -0.508 ± 0.078
11 | R21W | -0.766 ± 0.093
12 | R21L | -0.177 ± 0.058
13 | M32D | -0.057 ± 0.097
14 | M32T | 0.046 ± 0.075
15 | M32K | -0.165 ± 0.091
16 | M32W | -0.137 ± 0.07
17 | M32L | -0.045 ± 0.057
18 | M32V | -0.054 ± 0.055
19 | M32I | -0.24 ± 0.088
20 | E25D | 0.027 ± 0.14
21 | E25P | -0.659 ± 0.11
22 | E25R | -0.019 ± 0.054
23 | E25L | -0.038 ± 0.06
24 | E25C | -0.019 ± 0.097

Row | Variant | abundance fitness
25 | E25A | 0.062 ± 0.079
26 | E25V | 0.013 ± 0.063
27 | E25S | 0.022 ± 0.06
28 | Y41L | -0.045 ± 0.064
29 | Y41P | -0.446 ± 0.091
30 | Y41N | 0.035 ± 0.1
31 | M2K | -0.36 ± 0.11
32 | M2C | -0.286 ± 0.14
33 | M2F | -0.194 ± 0.15
34 | M2Y | -0.15 ± 0.15
35 | M2L | -0.098 ± 0.075
36 | M2S | -0.009 ± 0.077
37 | M2W | -0.657 ± 0.13
38 | M2E | -0.19 ± 0.083
39 | E15S | -0.114 ± 0.06
40 | E15G | -0.142 ± 0.062
41 | E15T | -0.139 ± 0.073
42 | E15R | 0.022 ± 0.056
43 | E15L | -0.064 ± 0.06
44 | E15V | -0.026 ± 0.061
45 | E15W | -0.27 ± 0.074
46 | E15D | -0.336 ± 0.12
47 | E15K | 0.081 ± 0.082
48 | I39R | -0.097 ± 0.056

Row | Variant | abundance fitness
49 | I39N | -0.255 ± 0.12
50 | I39S | -0.111 ± 0.069
51 | I39L | -0.05 ± 0.066
52 | I39T | -0.034 ± 0.083
53 | I39P | -0.278 ± 0.11
54 | I39D | -0.469 ± 0.11
55 | K53C | -0.238 ± 0.087
56 | K53Y | -0.214 ± 0.087
57 | K53T | -0.109 ± 0.096
58 | K53P | -0.809 ± 0.15
59 | K53H | -0.213 ± 0.11
60 | K53N | -0.378 ± 0.087
61 | G6P | -0.985 ± 0.13
62 | G6K | -0.416 ± 0.1
63 | G6Y | -0.971 ± 0.25
64 | G6E | -0.845 ± 0.12
65 | G6R | -0.431 ± 0.058
66 | G6A | -0.785 ± 0.086
67 | G6W | -0.545 ± 0.093
68 | G6V | -0.928 ± 0.094
69 | G6M | -0.922 ± 0.13
70 | N51T | -0.529 ± 0.077
71 | N51C | -0.205 ± 0.11
72 | N51S | -0.205 ± 0.064

Row | Variant | abundance fitness
73 | N51P | -1.02 ± 0.14
74 | N51H | 0.055 ± 0.084
75 | N51Y | -0.678 ± 0.16
76 | W3G | -0.856 ± 0.081
77 | W3P | -0.314 ± 0.11
78 | W3N | -0.737 ± 0.28
79 | W3K | -1.01 ± 0.3
80 | W3D | -1.31 ± 0.34
81 | V36N | -1.11 ± 0.3
82 | V36W | -0.833 ± 0.12
83 | V36H | -0.838 ± 0.32
84 | V36Q | -0.73 ± 0.14
85 | V36S | -0.913 ± 0.1
86 | A22N | -0.986 ± 0.3
87 | A22P | -0.976 ± 0.14
88 | A22K | -1.03 ± 0.14
89 | A22V | -0.845 ± 0.069
90 | A22I | -0.923 ± 0.36
91 | A22C | -0.488 ± 0.12
92 | L27P | -0.973 ± 0.17
93 | L27V | -0.064 ± 0.067
94 | L27M | -0.181 ± 0.11
95 | L27C | -0.183 ± 0.087
96 | L27W | -0.76 ± 0.1

Row | Variant | abundance fitness
97 | L27I | -0.072 ± 0.11
98 | G42W | -0.695 ± 0.089
99 | G42K | -0.407 ± 0.14
100 | G42M | -0.319 ± 0.18
101 | G42S | -0.378 ± 0.13
102 | G42D | 0.059 ± 0.1
103 | G42Q | -0.345 ± 0.15
104 | V35F | -0.186 ± 0.1
105 | V35L | -0.011 ± 0.063
106 | V35M | -0.079 ± 0.083
107 | V35K | 0.104 ± 0.082
108 | V35Y | -0.092 ± 0.1
109 | V35S | -0.032 ± 0.071
110 | V35N | -0.211 ± 0.12
111 | V35C | -0.162 ± 0.088
112 | K37A | -0.996 ± 0.1
113 | K37L | -0.719 ± 0.096
114 | K37I | -0.968 ± 0.25
115 | E8M | -0.046 ± 0.12
116 | E8K | 0.017 ± 0.095
117 | E8N | -0.077 ± 0.11
118 | V24K | -0.849 ± 0.17
119 | V24S | -0.751 ± 0.075
120 | V24T | -0.863 ± 0.11

Row | Variant | abundance fitness
121 | A26Q | -0.322 ± 0.2
122 | A26Y | -0.062 ± 0.21
123 | A26H | -0.031 ± 0.21
124 | A26L | -0.041 ± 0.089
125 | A26V | -0.128 ± 0.11
126 | A26K | 0.158 ± 0.17
127 | A26I | -0.16 ± 0.16
128 | A26M | -0.065 ± 0.14
129 | C9R | -0.819 ± 0.083
130 | C9N | -0.82 ± 0.27
131 | C9G | -0.869 ± 0.076
132 | N43D | -0.259 ± 0.14
133 | N43R | 0.091 ± 0.048
134 | N43L | 0.01 ± 0.064
135 | N43F | -0.052 ± 0.19
136 | N43K | 0.093 ± 0.094
137 | K1Y | -0.158 ± 0.27
138 | K1W | -0.336 ± 0.33
139 | K1S | -0.283 ± 0.14
140 | K1T | -0.278 ± 0.17
141 | K1G | -0.138 ± 0.14
142 | K1C | -0.261 ± 0.4
143 | Y13P | -0.902 ± 0.13
144 | Y13Q | -0.292 ± 0.092

Row | Variant | abundance fitness
145 | Y13R | 0.069 ± 0.055
146 | Y13F | 0.065 ± 0.11
147 | Y13K | -0.028 ± 0.093
148 | Y13A | -0.02 ± 0.069
149 | Q56I | -0.038 ± 0.092
150 | Q56F | -0.071 ± 0.11
151 | Q56S | -0.054 ± 0.064
152 | Q56V | -0.02 ± 0.06
153 | Q56M | -0.037 ± 0.097
154 | Q56W | -0.189 ± 0.077
155 | Q56P | 0.015 ± 0.074
156 | Q56R | -0.078 ± 0.054
157 | F38C | -0.935 ± 0.13
158 | F38A | -0.878 ± 0.091
159 | F38H | -0.94 ± 0.23
160 | F38E | -0.997 ± 0.13
161 | F38D | -0.764 ± 0.17
162 | Y44R | 0.171 ± 0.056
163 | Y44P | -0.473 ± 0.096
164 | Y44H | -0.13 ± 0.1
165 | Y44T | 0.039 ± 0.081
166 | Y44K | 0.157 ± 0.088
167 | L48Q | -0.008 ± 0.09
